According to patent US20250019448A1 (BIOCOMPLETE, published 2025):

B1: #47 antibody (IgG form) (antibody, V domains shown)
VH: QVQLVQSGGGVVQPGSSLRLSCEASGFAIGDNALNWVRQAPGKGLEWVGYIRSNSYGGTAEYAASVKGRFTISKDESKNIAYLEMNSLRAEDTAVYYCARRAHYYDGSTYNPSWYFDLWGRGTLVTVSS
VL: EIVLTQSPSFLSASVGDRVTITCRASQDISRRLAWYQQKPGKAPKLLIYGASNLASGVPSRFTGSGSGTEFTLTISSLQPDDFATYYCQQGYSSPRTFGQGTKVDIK
B2: #40 antibody (IgG form) (antibody, V domains shown)
VH: QVQLVQSGGGVVQPGSSLRLSCEASGFAIGDNALNWVRQAPGKGLEWVGYIRSNSYGGTAEYAASVKGRFTISRDESKNIAYLEMNSLRAEDTAVYYCARRAHYYGGSTYNPSWYFDLWGRGTPVTVSS
VL: EIVLTQSPSFLSASVGDRVTITCRASQDISRRLAWYQRKPGKAPKLLIYGASNLASGVPSRFTGSGSGTEFTLTISSLQSDDFATYYCQQGYSSPRTFGQGTKVDIK
B3: #42 antibody (IgG form) (antibody, V domains shown)
VH: QVRLVQSGAEVKKPGASVKVSCRASGYTFASYDIHWVRQAPGQGPEWMGMINPAGGSTLYAEGFEGRLTMTRDRSMSTAYMELSSLRSEDTAVYYCARTPSQTYELDYWGQGTLVTVSS
VL: ETTLTQSPSSLSASVGDRVTITCRASQGIRNDLAWYQQKPGKAPKLLIYAASTLESGVPPRFSGSGSETDFTLTLIRLQPDDFATYYCLQSFSTPYTFGQGTQLTVL

Each binder was assayed against T1, SMO (smoothened) protein (Homo sapiens (Human), UniProt Q99835 28-787) (assay: flow cytometry on HCT116 cells, 10 µg antibody, Alexa 594 secondary antibody).
T1 construct: Endogenous SMO on HCT116 and SKOV3 cancer cells; also called SMO in HCT116 cells; SMO receptor
Protocol: The binding affinity of the SMO-binding antibodies in HCT116 colon cancer cells was analyzed by flow cytometry. After blocking the HCT116 cells with BSA for 30 minutes, 10 μg of the SMO-binding antibody was bound and incubated for 1 hour at room temperature. One hour later, the cells were washed with PBS, reacted with 2 μL of Alexa 594 secondary antibody, and then incubated for 1 hour at room temperature. One hour later, the cells were washed with PBS to remove non-specific binding, and the binding ability of the SMO-binding antibodies was analyzed by flow cytometry.
B1: binds.
B2: binds.
B3: binds.
